Test results: patent US6124449, “High affinity TGFβ nucleic acid ligands and inhibitors” (NeXstar Pharmaceuticals, Inc.)

Key:
[1] = target: T1, TGF-beta1 (hTGF-beta1) (Homo sapiens, UniProt P01137 P01137:279-390); assay: cell_activity; MLEC assay; settings: tags: R&D Systems, biotinylated form (NFTG0) used for BIAcore, chain copies: 2
Method: Cells were plated at 10^5/mL in 96-well plates in MEM, 10 mM HEPES and 0.2% FBS. Following 4 hours of incubation at 37° C., when cells appeared to attach to the well surface, TGFβ1 was added at 2 pM with or without TGFβ1 ligands that ranged from 0.1 nM to 1 µM. In a second assay performed in order to determine cross-species reactivity, rather than using hTGFβ, a conditioned serum-free medium (CM) was used. CM was conditioned by culturing it in murine 3T3 fibroblast for 48 hours. Before use, this conditioned medium was heat treated at 80° C. for 10 minutes to activate the 3T3 cell derived TGFβ and then it was diluted to 50% and supplemented with 0.2% murine serum. In each assay, hTGFβ1 (or CM) was diluted appropriately in MEM and FBS (0.2% or murine serum) and the ligands were diluted in MEM. TGFβ1 (or CM) and ligand dilutions at 10× the final concentration were premixed at equal volumes and then were added to the cells. Following addition of the TGFβ1 (or CM)-ligand mixture, the cells were incubated for 16–18 hours prior to addition of ^3H-thymidine at 0.25 µCi per well and continued incubation for 7–8 additional hours. After incubation, the cells were washed and harvested with SKATRON filtering units and ^3H-thymidine incorporation in cellular DNA was quantitated by scintillation counting in Ecoscint. Data were plotted and analyzed as described in Park et al. (1990) J. Exp. Med. 171:1073) and Dower et al. (1984) J. Immunol.

[2] = target: T1, TGF-beta1 (hTGF-beta1); assay: filter; monophasic, plateau 8%; settings: tags: R&D Systems; biotinylated form (NFTG0) used for BIAcore; chain copies: 2
[3] = target: T1, TGF-beta1 (hTGF-beta1); assay: filter; monophasic; settings: tags: R&D Systems; biotinylated form (NFTG0) used for BIAcore; chain copies: 2
[4] = target: T1, TGF-beta1 (hTGF-beta1); assay: filter; biphasic; Kd1 58.2 nM; P2 1.2%; settings: tags: R&D Systems; biotinylated form (NFTG0) used for BIAcore; chain copies: 2
[5] = target: T1, TGF-beta1 (hTGF-beta1); assay: filter; biphasic; Kd1 56.6 nM; P2 2.4%; settings: tags: R&D Systems; biotinylated form (NFTG0) used for BIAcore; chain copies: 2
[6] = target: T1, TGF-beta1 (hTGF-beta1); assay: filter; monophasic, plateau about 10%; Table 3 and Table 4 sequences differ slightly; settings: tags: R&D Systems; biotinylated form (NFTG0) used for BIAcore; chain copies: 2
[7] = target: T1, TGF-beta1 (hTGF-beta1); assay: filter; biphasic; Kd1 3.7±1.5 nM; settings: tags: R&D Systems; biotinylated form (NFTG0) used for BIAcore; chain copies: 2
[8] = target: T1, TGF-beta1 (hTGF-beta1); assay: filter; biphasic; Kd1 14.0±6.4 nM; settings: tags: R&D Systems; biotinylated form (NFTG0) used for BIAcore; chain copies: 2
[9] = target: T1, TGF-beta1 (hTGF-beta1); assay: filter; biphasic; Kd1 8.5±1.8 nM; settings: tags: R&D Systems; biotinylated form (NFTG0) used for BIAcore; chain copies: 2
[10] = target: T1, TGF-beta1 (hTGF-beta1); assay: filter; biphasic; Kd1 13.5±4.2 nM; settings: tags: R&D Systems; biotinylated form (NFTG0) used for BIAcore; chain copies: 2
[11] = target: T1, TGF-beta1 (hTGF-beta1); assay: filter; biphasic; Kd1 4.4±1.6 nM; settings: tags: R&D Systems; biotinylated form (NFTG0) used for BIAcore; chain copies: 2
[12] = target: T1, TGF-beta1 (hTGF-beta1); assay: filter; biphasic; Kd1 5.6±2.0 nM; settings: tags: R&D Systems; biotinylated form (NFTG0) used for BIAcore; chain copies: 2
[13] = target: T1, TGF-beta1 (hTGF-beta1); assay: filter; biphasic; Kd1 4.2±2.2 nM; settings: tags: R&D Systems; biotinylated form (NFTG0) used for BIAcore; chain copies: 2
[14] = target: T1, TGF-beta1 (hTGF-beta1); assay: filter; biphasic; Kd1 3.7±0.6 nM; settings: tags: R&D Systems; biotinylated form (NFTG0) used for BIAcore; chain copies: 2

T1 sequence (P01137 279-390, one chain of several): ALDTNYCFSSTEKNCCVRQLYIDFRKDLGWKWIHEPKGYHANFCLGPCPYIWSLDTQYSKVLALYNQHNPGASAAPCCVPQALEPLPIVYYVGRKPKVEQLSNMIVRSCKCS

B1: 40-14 (ssRNA)
RNA: GGGAGGACGAUGCGGCAUUAUGGCGUCAACAUGCCGGUUUUCGAUUCUCAUUGUCCAGACGACUCGCCCGA
modifications: 2'-F C and U
[1]
  Ki: 3.9 nM

B2: 20-04 (ssRNA)
RNA: GGGAGGACGAUGCGGUGUCUUUAGCUUAGGUGAUUCCUUCUGCCGCAGACGACUCGCCCGA
modifications: 2'-F C and U
[2]
  Kd: 0.2 nM

B3: 30-37 (ssRNA)
RNA: GGGAGGACGAUGCGGUGUCUUUGGCCUAGGUGAUUCCUUCUGCCGCAGACGACUCGCCCGA
modifications: 2'-F C and U
[3]
  Kd: 2.65 nM

B4: 30-03 (ssRNA)
RNA: GGGAGGACGAUGCGGUGUCUUUAGCCCAGGUGAUUCCUUCUGCCGCAGACGACUCGCCCGA
modifications: 2'-F C and U
[4]
  Kd: 0.262 nM

B5: 30-43 (ssRNA)
RNA: GGGAGGACGAUGCGGUGUCUUUAGCCUAGGUGAUUCCUUCUGCCGCAGACGACUCGCCCGA
modifications: 2'-F C and U
[3]
  Kd: 50.5 nM

B6: 30-06 (ssRNA)
RNA: GGGAGGACGAUGCGGUGCCUUUAGCUUAGGCUUUGCCUUCUGCCGCAGACGACUCGCCCGA
modifications: 2'-F C and U
[5]
  Kd: 0.0741 nM

B7: 20-05 (ssRNA)
RNA: GGGAGGACGAUGCGGUGUCUCUACCUUAGGUUGAUUCCUUCUACCGCAGACGACUCGCCCGA
modifications: 2'-F C and U
[6]
  Kd: 0.11 nM

B8: 40-77 (ssRNA)
RNA: GGGAGGACGAUGCGGUUAUGGGCGUCAACACCGCUAUUACAACUUUCGCCCCCCAGACGACUCGCCCGA
modifications: 2'-F C and U
[7]
  Kd: 0.00173 nM

B9: 40-55 (ssRNA)
RNA: GGGAGGACGAUGCGGUUAGGGGCGUCAACACCGCUAUUCAACCUUCGCUUCCCCAGACGACUCGCCCGA
modifications: 2'-F C and U
[1]
  Ki: 2.9 nM

B10: 40-32 (ssRNA)
RNA: GGGAGGACGAUGCGGUUAUGGGCGUCAACACCGCUAUUACAACUUUCGCCUCCAGACGACUCGCCCGA
modifications: 2'-F C and U
[8]
  Kd: 0.005 nM

B11: 40-29 (ssRNA)
RNA: GGGAGGACGAUGCGGGACCCUUUUCUGCGAUUCAACUCGUACGUCUUCUCACGUGCAGACGACUCGCCCGA
modifications: 2'-F C and U
[3]
  Kd: 10.9 nM

B12: 40-12 (ssRNA)
RNA: GGGAGGACGAUGCGGGACCCUUGUCUGCGAUUCAACUCGUAGGUUUUCUCACGUGCAGACGACUCGCCCGA
modifications: 2'-F C and U
[1]
  Ki: 6.88 nM

B13: 40-13 (ssRNA)
RNA: GGGAGGACGAUGCGGAGCAAGGUUACGAGGUCGGACCCUGCUGCCAACAUCCUCCCCAGACGACUCGCCCGA
modifications: 2'-F C and U
[3]
  Kd: 15.4 nM

B14: 40-40 (ssRNA)
RNA: GGGAGGACGAUGCGGCCCAAGGUUACGCCGUCGGACCCUACUGCCAACUUCCUCCCCAGACGACUCGCCCGA
modifications: 2'-F C and U
[3]
  Kd: 18 nM

B15: 40-20 (ssRNA)
RNA: GGGAGGACGAUGCGGUACAAGGUUACGCCGUCGGACCCUGCUGCCAACAUCCUCCCCAGACGACUCGCCCGA
modifications: 2'-F C and U
[3]
  Kd: 11.2 nM

B16: 40-33 (ssRNA)
RNA: GGGAGGACGAUGCGGAGCAAGGUUACGCCGUCGGACCCUGCUGCCAACAUCCUCCCCAGACGACUCGCCCGA
modifications: 2'-F C and U
[3]
  Kd: 26.6 nM

B17: 40-44 (ssRNA)
RNA: GGGAGGACGAUGCGGUGCAAGGUUACGCCGUCGGACCCUGCUGCCAACAUCCUCCCCAGACGACUCGCCCGA
modifications: 2'-F C and U
[3]
  Kd: 11.1 nM

B18: 40-54 (ssRNA)
RNA: GGGAGGACGAUGCGGUUAGGGGCGUCAACACCGCUAUCAUAACUUUCGCUUCCCCAGACGACUCGCCCGA
modifications: 2'-F C and U
[9]
  Kd: 0.00675 nM

B19: 40-61,76 (ssRNA)
RNA: GGGAGGACGAUGCGGUUAGGGGCGUCAACACCGCUAUUACAAUCUUCGCUUUCCCAGACGACUCGCCCGA
modifications: 2'-F C and U
[10]
  Kd: 0.001 nM

B20: 40-16 (ssRNA)
RNA: GGGAGGACGAUGCGGUUAGGGGCGUCAACACCGCUAUUACAUCUUUCGCCUCCCCAGACGACUCGCCCGA
modifications: 2'-F C and U
[1]
  Ki: 0.6 nM

B21: 40-58 (ssRNA)
RNA: GGGAGGACGAUGCGGUUAUGGGCGUCAACACCGCUAUUACAACUUUCGCCUCCCCAGACGACUCGCCCGA
modifications: 2'-F C and U
[11]
  Kd: 0.0053 nM
[1]
  Ki: 0.9 nM

B22: 40-64 (ssRNA)
RNA: GGGAGGACGAUGCGGUUAGGGGCGUCAACACCGCUAUUACAAUCUUCGUCUUCCCAGACGACUCGCCCGA
modifications: 2'-F C and U
[12]
  Kd: 0.0031 nM

B23: 40-19 (ssRNA)
RNA: GGGAGGACGAUGCGGUUAGCGCGAGUUCAACACCGCAUGUGAUUCUUUCGCCUCCCAGACGACUCGCCCGA
modifications: 2'-F C and U
[1]
  Ki: 28 nM
[13]
  Kd: 0.0037 nM

B24: 30-08 (ssRNA)
RNA: GGGAGGACGAUGCGGCGGAAUUUUUGUUGAGCCGUAUGCCGCCAGACGACUCGCCCGA
modifications: 2'-F C and U
[3]
  Kd: 10.2 nM

B25: 40-56 (ssRNA)
RNA: GGGAGGACGAUGCGGUUAGGGCGUCAACACCGCUAUUACAACUUUCGCCUCCCCAGACGACUCGCCCGA
modifications: 2'-F C and U
[1]
  Ki: 7.4 nM

B26: 40-36 (ssRNA)
RNA: GGGAGGACGAUGCGGGUCAAGGUUACGCCGUCGGACCCUACUGCCCCCAGACGACUCGCCCGA
modifications: 2'-F C and U
[3]
  Kd: 41.7 nM

B27: 30-34 (ssRNA)
RNA: GGGAGGACGAUGCGGUGUCUAUAGCCUUGAUUACAUCAUCUGCCUCAGACGACUCGCCCGA
modifications: 2'-F C and U
[3]
  Kd: 9.5 nM

B28: 40-08 (ssRNA)
RNA: GGGAGGACGAUGCGGCGCAAGGUUACGCCGUCGGACCCUGCUGCCAACAUCCUCCCAGACGACUCGCCCGA
modifications: 2'-F C and U
[3]
  Kd: 15.4 nM

B29: 40-06 (ssRNA)
RNA: GGGAGGACGAUGCGGUUAGGGGCGUCAACACCGCUAUCAUAAUUUUCGCCUUCCCCAGACGACUCGCCCGA
modifications: 2'-F C and U
[14]
  Kd: 0.0016 nM

B30: 40-60 (ssRNA)
RNA: GGGAGGACGAUGCGGUUAUGGGCGUCAACACCGCUAUUACAGUUUUCGCCUCCCCCAGACGACUCGCCCGA
modifications: 2'-F C and U
[1]; label: 5'-biotin for BIAcore specificity, proposed double pseudoknot
  Ki: 0.8 nM

B31: 40-38 (ssRNA)
RNA: GGGAGGACGAUGCGGAGAUAAUUAUCAGCGGUGGACGGGGUGCCGGUACUGCCGCCAGACGACUCGCCCGA
modifications: 2'-F C and U
[3]
  Kd: 21.8 nM

B32: 30-15 (ssRNA)
RNA: GGGAGGACGAUGCGGUUGACCGUUAAGACGGCAUGAUGUGGUCCGCAGACGACUCGCCCGA
modifications: 2'-F C and U
[3]
  Kd: 55.3 nM

B33: 30-22 (ssRNA)
RNA: GGGAGGACGAUGCGGUUAACCGUAAAGACGGCAUGAUGUUUUCCGCAGACGACUCGCCCGA
modifications: 2'-F C and U
[3]
  Kd: 2.47 nM
